The source of these data is patent US20210196823A1, “Methods of Treating Metabolic Disease” (Pfizer Inc., priority 2018, published 2021).

The subject of assay [1] is abdominal preadipocytes. As to the kind of experiment: Western blot of phospho- and total SMAD1/5/8 in preadipocytes. The conditions noted are these: abdominal cells, 30 minutes. In kind it is cell-based, Human. As to the method: (a) Primary pre-adipocyte isolation. Human primary pre-adipocytes were prepared by isolation from white adipose tissue (WAT) biopsies taken under local anesthetic (1% lignocaine) by needle aspiration at the level of the umbilicus (ASAT) and from the upper-, outer-quadrant of the gluteal region (GSAT). Primary preadipocytes were isolated from ASAT and GSAT biopsies by mechanically mincing using scissors, washed twice with Hanks' buffered salt solution to remove contaminating blood, and then enzymatically digested in 1 mg/ml collagenase (Roche Applied Science) in Hanks' buffered salt solution in a shaking water bath (90 rpm) at 37° C. for 45 min. The digested tissue was centrifuged at 1000 rpm for 5 min at 4° C. The pellet containing stromal-vascular cells was resuspended in Dulbecco's modified Eagle's medium/F12 Ham's nutrient mixture (v/v, 1:1) containing 17.5 mM glucose and supplemented with 10% foetal calf serum, 0.25 ng/ml fibroblast growth factor, 2 mM glutamine, 100 units/ml penicillin and 100 μg/ml streptomycin. Cell stocks of APAD and GPAD cells were prepared and stored in liquid nitrogen for future studies. […]
(A western blot detects proteins with antibodies after separation by electrophoresis.)

Assay [2] deals with T1, BMP2 (Homo sapiens, UniProt P12643).
T1 sequence (P12643 283-396): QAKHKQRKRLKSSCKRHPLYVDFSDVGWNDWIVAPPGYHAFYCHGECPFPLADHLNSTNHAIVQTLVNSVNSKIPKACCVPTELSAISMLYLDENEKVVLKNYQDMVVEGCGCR
As to the kind of experiment: Biacore SPR, BMP run against ERFE A4-biotin on CM4 chip. It is filed as binding. Particulars: BMP 50 nM, MES-Tris buffer pH6.0, 25° C. An excerpt:
(§1) Iron absorption is tightly regulated by erythropoietic demand via control of hepcidin expression. Erythropoietin (EPO) causes hepcidin suppression, at least in part by increasing synthesis of the hormone erythroferrone (ERFE). ERFE is produced by erythroblasts after bleeding or EPO treatment, and acts on hepatocytes to suppress hepcidin expression and increase iron availability. ERFE knock out mice fail to suppress hepcidin after phlebotomy and show delayed recovery from blood loss. Furthermore, serum ERFE concentrations are increased in humans after blood loss and EPO administration, and in β-thalassemia patients. Hepcidin expression is modulated via the BMP/SMAD signalling pathway. […] We sought to determine whether the mechanism by which ERFE suppresses hepcidin is through interaction with BMP. Binding constants were measure using Biacore SPR. BMPs 2, 4, 6 at 50 nM was run against ERFE A4-biotin amine coupled to CM4 sensor chip in MES-Tris buffer pH6.0, 25° C.

Assay [3] addresses T2, BMP4 (Homo sapiens, UniProt P12644).
T2 sequence (P12644 293-408): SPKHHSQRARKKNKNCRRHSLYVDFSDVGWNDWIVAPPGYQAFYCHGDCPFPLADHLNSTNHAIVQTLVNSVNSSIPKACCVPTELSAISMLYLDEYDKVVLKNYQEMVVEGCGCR
The assay is described as above. It is filed as binding. The conditions noted are these: BMP 50 nM, MES-Tris buffer pH6.0, 25° C.
Excerpt: as §1

For assay [4], the target named is T3, BMP6 (Homo sapiens, UniProt P22004).
T3 sequence (P22004 375-513): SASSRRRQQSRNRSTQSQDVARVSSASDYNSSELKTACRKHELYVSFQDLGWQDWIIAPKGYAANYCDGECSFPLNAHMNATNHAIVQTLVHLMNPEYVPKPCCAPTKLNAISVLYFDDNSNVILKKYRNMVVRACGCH
Described as above. In kind it is binding.
Excerpt: as §1

In assay [5] the test system is Huh7 cells. As to the kind of experiment: HAMP and ID1 qRT-PCR in Huh7 cells treated with BMPs with or without mouse ERFE. The conditions noted are these: a variety of different cell types. It is filed as cell-based. The protocol: (b) Gene expression microarray: Microarray analysis of Huh7 cells treated with mouse or human erythroferrone was carried out to test the activity of erythroferrone on the BMP/SMAD signalling pathway. Generally cell treatments were carried out according to the following protocol: Huh7 and HepG2 were cultured in Dulbecco's Modified Eagle's Medium—High Glucose (Sigma), supplemented with 10% Fetal Bovine Serum (Sigma), 1% Penicillin-Streptomycin (Sigma) and 1% L-Glutamine (Sigma), unless otherwise indicated. Cells were plated 24 h before treatments in 24-well (gene expression analysis) or 12-well (protein analysis) cell culture plates. At the time of treatment, cells were washed with PBS and fresh media was added.
(c) RNA isolation, cDNA synthesis and qRT-PCR: Suppression of several BMP-target genes: HAMP, ID1, ID3, SMAD6 and SMAD7 was further confirmed by qRT-PCR. Cells were lysed and RNA was isolated using the RNeasy Plus kit (Qiagen), followed by RNA quantification and quality assessment using Nanodrop (Thermo Fisher). cDNA was synthesized using the High Capacity RNA-to-cDNA kit (Applied Biosystems). Gene expression was assessed using quantitative real-time PCR with Taqman Gene Expression Master Mix and inventoried Taqman Gene expression assays (Applied Biosystems) specific for the genes of interest according to the manufacturer's instructions. […]

B1: ERFE: hormone erythroferrone (FAM132b); recombinant protein, species or construct not stated at the place (SPR used ERFE A4-biotin) (protein)
chain: AAGLGSPEPGAPSRSAAAAEPPPGNELPRGPGESRAGPAARPPEPTAERAHSVDPRDAWMLFVRQSDKGVNGKKRSRGKAKKLKFGLPGPPGPPGPQGPPGPIIPPEALLKEFQLLLKGAVRQRERAEPEPCTCGPAGPVAASLAPVSATAGEDDDDVVGDVLALLAAPLAPGPRAPRVEAAFLCRLRRDALVERRALHELGVYYLPDAEGAFRRGPGLNLTSGQYRAPVAGFYALAATLHVALGEPPRRGPPRPRDHLRLLICIQSRCQRNASLEAIMGLESSSELFTISVNGVLYLQMGQWTSVFLDNASGCSLTVRSGSHFSAVLLGV
B1: the “BMP2-induced SMAD1/5/8 phosphorylation on addition of ERFE” value in assay [1] is “diminished”. Moreover, in assay [2], the “Kd of ERFE binding to BMP2” value was “nanomolar”. Moreover, in assay [3], the “Kd of ERFE binding to BMP4” value is listed as “nanomolar”. For the same molecule, the “Kd of ERFE binding to BMP6” value in assay [4] (BMP 50 nM, MES-Tris buffer pH6.0, 25° C.) is recorded as “nanomolar”. In addition, the “tightness of ERFE binding among BMPs 2, 4 and 6” value in assay [4] (SPR (Biacore)) is given as “most tightly”. The “inhibitory action on BMP2 and 4 and BMP2/6 heterodimer” value in assay [5] was “Inhibitory action is also seen”.
